Measurements taken from article PMC11042539 (Journal of the American Chemical Society, 2011).
Where two headings read alike, the source gives them in different places.

Assays:
[1] = test system: OC[C@H]1O[C@H](O[C@H]2O[C@H](CO)[C@@H](O)[C@H](O)[C@H]2O)[C@H](O)[C@@H](O)[C@@H]1O; test: purified protein
Ag85c = Ag85c (Mycobacterium tuberculosis, UniProt P9WQN9); test: biochemical
Ag85c, sequence (P9WQN9 46-340 limits assumed): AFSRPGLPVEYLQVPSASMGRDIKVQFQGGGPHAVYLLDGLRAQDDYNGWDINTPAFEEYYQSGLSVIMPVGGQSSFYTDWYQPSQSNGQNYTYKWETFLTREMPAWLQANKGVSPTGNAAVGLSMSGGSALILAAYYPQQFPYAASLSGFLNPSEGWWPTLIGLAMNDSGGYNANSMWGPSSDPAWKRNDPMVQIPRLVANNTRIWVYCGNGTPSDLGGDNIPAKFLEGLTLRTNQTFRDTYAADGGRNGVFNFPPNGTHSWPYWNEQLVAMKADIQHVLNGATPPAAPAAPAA

| Compound | Km ([1]; Ser-His-Asp catalytic triad at the trehalose binding site) [µM] | Km [1] [µM] | kcat [1] [s⁻¹] | kcat/Km [1] [M⁻¹ s⁻¹] | Ki (Ag85c) [µM] |
| --- | --- | --- | --- | --- | --- |
| Ag85c (Mycobacterium tuberculosis H37Rv) | 16.9 ± 5.3 |  |  |  |  |
| Ag85b (Mycobacterium tuberculosis H37Rv) |  | 112 | 0.003 | 30 |  |
| Ag85a (Mycobacterium tuberculosis H37Rv) |  | 175 | 0.014 | 82 |  |
| CCCCCC(=O)OC[C@H]1O[C@H](O[C@H]2O[C@H](COC(=O)CCCCC)[C@@H](O)[C@H](O)[C@H]2O)[C@H](O)[C@@H](O)[C@@H]1O [2b, 6,6’-di-hexanoyltrehalose] |  |  |  |  | 355 ± 106 |
